Data from the RNAGym collection of RNA variant scans (doi:10.1073/pnas.2313332121).

B1: TPR t1 (parent)
chain: GACCAAUCUGCCCUCAGAGCUCGAGAACAUCUUCGGAUGCAGAGGAGGCAGGCUUCGGUGGCGCGAUAGCGCCAACGUCCUCAACCUCCAAUGCAUCCCACCACAUGAUGAUGCCUGAAGAGCCUUGGUUUUUUG

Variants of: B1
Experiment: polymerase ribozyme fitness, log enrichment relative to wild type (log ratio); higher = more active; in vitro selection for triplet polymerase activity
In short: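 Mutant libraries of both subunits of a heterodimeric triplet polymerase ribozyme were PCR-built, transcribed, and selected once in triplicate, with frozen incubation at −7 °C and capture of gel-excised extended constructs on streptavidin beads before RT-PCR. Illumina sequencing of input and output libraries was filtered to genotypes with ≥10 input reads and ≥1 read per output. Fitness is the logarithm of genotype enrichment over wild-type enrichment, using inverse-variance-weighted replicate averages. The logarithm is base 2.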

Variant	polymerase ribozyme fitness (log ratio)
C73U A103G	-4.17
A6U G60U C64U A91G C102G G110U	-7.78
A37U G48U G57U U129C	-1.96
U21A C62U A119U	-0.733
A90C C101A	-2.32
U96A C99A U106G	-5.31
U14G C72G	-2.44
U7A G10U C64G G93A	-6.26
U21G G93U A111G U112G	-2.45
A43U G60C C76G U78A G113C U125A	-4.6
C28G G52A C70U C86U C101U G110A U131G	-2.57
C40U C104U	-0.655
U33A G36U	-4.74
C53G C101G	-1.65
A18U C73U U96A	-3.25
A5U U54C G60A U112C	1.52
G47A G69C C86A C97U C115U C124G U125C	-5.52
C11A C49A U59A A91G	-2.95
G10U G36C C86G G128C	-5.29
A18U G45U U87C A90G	-2.54
A29G C56U C101G	-6.01

Variant	polymerase ribozyme fitness (log ratio)
C101G U106A G122A	-0.277
G36U A46U C72A C97U	-1.58
A43C C62G	-5.4
U14C G17C C20A A24U A43C C85U A111G	-6.11
C3A C12G A26U U30G G65C A121C U130C	-6.48
A5U C64U C79U G110A A111G U130C	-0.201
C73U U81A U116G U125A	-4.02
A6U A46U C115A	-2.18
G51U U54C U59G	-3.68
G44A G63A A84U	-2.6
G45A C114A	-1.97
G93U C123U	0.528
G45U A105C	-4.28
A6C G52A C79U U87A	-0.58
A41C G113A C124G	-1.49
C72G A95U	-1.07
C73A C101A	-1
G69C G113A	-1.72
G60A G77A C82G	-0.994
G71C U106A G113C	-3.53
C8A C40G A84U	-0.858

Variant	polymerase ribozyme fitness (log ratio)
A43C C72U A100U U130G	-4.41
U9C U78G U81A	-0.22
G25A G60C	-7.2
C15U A91C	-2.75
C40U A121U	1.68
G63A A66G	-1.9
A50G A66G C73U C86A C115G	-4.26
G47A C49U	-0.915
A26G C94G	-3.05
C3U C8U G71U C88U G117C	-4.1
G45A A121U	1.1
A6U A26C C34G C64G A111U	-7.61
G77A C79U G120U C123A	0.335
G10C U78C U106A U109G	-4.27
C11U C88G C114A U126A	-5.99
G60C C98G	-6.74
G10U U55A G71C	-1.11
C82U C94U C114A	-2.17
U59G G63U U129C	-2.43
A50C C56A G77C C115A	-1.07
A16G A50U U81G	-2.01

Variant	polymerase ribozyme fitness (log ratio)
C22U A66U G120A	-4.81
G45U G77U U132C	-1.59
U21C U38A C73A C123A	-1.55
U7A G69C A95G	-0.796
C70U U96A	-1.14
G69U A105U	-0.0845
A6U A68G A75U U92A C123A	-4.87
A27G G45A	-2.35
A37C G69U U96G U129A	-0.113
C8U A46G G48C C72G C80U A105C G122A	-5.9
C15A G39A G69A U87G U112G	-4.24
C12G C72G U87C	0.909
C28U C64U U87A	-1.96
C11G C15A G61U U125G	-0.123
A37C G48C	-1.64
G107U A121U G128C	-4.77
A2G U59G G122A U129C	-0.941
C64U A66G	-3.44
A6G C8A U125A	0.146
A111U	-2.62
A18C C40U A41G C56G C70U	-4.84
